Source: patent US20070128661A1 (Harvard, published 2007)
Where a chain is given by its changes, count along the chain named.

T1: Flag-tagged T-bet (wild type), immunoprecipitated from 293T cells (UniProt Q9JKD8)
T1 sequence: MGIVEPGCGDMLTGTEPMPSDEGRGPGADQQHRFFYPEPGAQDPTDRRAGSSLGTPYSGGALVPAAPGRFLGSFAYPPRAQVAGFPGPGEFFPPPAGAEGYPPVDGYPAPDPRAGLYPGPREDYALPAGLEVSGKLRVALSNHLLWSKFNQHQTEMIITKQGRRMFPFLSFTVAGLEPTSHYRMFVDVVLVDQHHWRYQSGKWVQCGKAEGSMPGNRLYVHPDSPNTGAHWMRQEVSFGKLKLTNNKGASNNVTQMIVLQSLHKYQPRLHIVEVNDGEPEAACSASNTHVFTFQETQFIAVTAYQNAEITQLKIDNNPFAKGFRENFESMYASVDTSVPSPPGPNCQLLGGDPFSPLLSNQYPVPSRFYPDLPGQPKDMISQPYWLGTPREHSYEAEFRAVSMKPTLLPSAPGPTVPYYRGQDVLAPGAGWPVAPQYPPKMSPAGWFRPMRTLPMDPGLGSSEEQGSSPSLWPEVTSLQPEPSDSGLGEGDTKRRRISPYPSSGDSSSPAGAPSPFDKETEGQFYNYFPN

T2: Flag-tagged T-bet S498A control mutant, immunoprecipitated from 293T cells (UniProt Q9JKD8)
T2 sequence: T1 sequence with S498A

T3: Flag-tagged T-bet S508A mutant, immunoprecipitated from 293T cells (UniProt Q9JKD8)
T3 sequence: T1 sequence with S508A

B1: endogenous T-bet in mouse Th1 cells (other, UniProt Q9JKD8 1-530, looked up)
chain: T1 sequence
modifications: phosphoserine at S508 found by mass spectrometry in primary Th1 cells

Tests used:
[1] = molecular target: T1, Flag-tagged T-bet (wild type), immunoprecipitated from 293T cells
[2] = molecular target: T2, Flag-tagged T-bet S498A control mutant, immunoprecipitated from 293T cells
[3] = molecular target: T3, Flag-tagged T-bet S508A mutant, immunoprecipitated from 293T cells
RelA (NF-kB p65) = details: ChIP real-time PCR; binding increase in T-bet-/- Th1 cells versus wt
[4] = molecular target: endogenous RelA in mouse Th1 cells (mouse, UniProt Q04207 1-549); assay: cell-based or functional assay
Sequence of endogenous RelA in mouse Th1 cells (Q04207 whole entry): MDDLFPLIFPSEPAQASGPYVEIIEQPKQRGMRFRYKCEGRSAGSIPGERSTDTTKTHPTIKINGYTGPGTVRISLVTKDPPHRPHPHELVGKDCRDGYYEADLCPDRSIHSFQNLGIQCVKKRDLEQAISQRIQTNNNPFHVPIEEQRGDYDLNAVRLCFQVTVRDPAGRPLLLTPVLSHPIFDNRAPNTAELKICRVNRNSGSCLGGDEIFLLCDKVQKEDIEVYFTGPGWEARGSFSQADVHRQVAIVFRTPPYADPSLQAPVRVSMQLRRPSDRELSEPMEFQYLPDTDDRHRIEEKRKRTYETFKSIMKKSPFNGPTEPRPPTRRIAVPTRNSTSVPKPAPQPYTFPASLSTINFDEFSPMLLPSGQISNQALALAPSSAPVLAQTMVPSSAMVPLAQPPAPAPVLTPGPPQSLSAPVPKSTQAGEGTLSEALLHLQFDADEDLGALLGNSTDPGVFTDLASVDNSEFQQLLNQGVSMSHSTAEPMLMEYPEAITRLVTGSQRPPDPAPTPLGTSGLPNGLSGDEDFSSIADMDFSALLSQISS

Molecule	in vitro phosphorylation of T-bet (γ-[32P]ATP, autoradiography) [1]	in vitro phosphorylation of T-bet (γ-[32P]ATP, autoradiography) [2]	in vitro phosphorylation of T-bet (γ-[32P]ATP, autoradiography) [3]	also measured
active ERK (recombinant)	CKI, but not active ERK, phosphorylated T-bet protein in vitro	–	–	–
PKA (recombinant)	T-bet was also phosphorylated by PKA but with 1000-fold lesser efficiency than CKI	PKA-induced phosphorylation was not different among the wt, S508A and S498A T-bet proteins	PKA-induced phosphorylation was not different among the wt, S508A and S498A T-bet proteins	–
IL-2 promoter chromatin (ChIP amplicon)	–	–	–	binding signal (RelA (NF-kB p65)): 4.5 fold
glycogen synthase kinase-3 (recombinant)	–	–	–	in vitro phosphorylation of T-bet by GSK-3 after prephosphorylation with CKI (γ-[32P]ATP) [1]: Hyperphosphorylation of T-bet by GSK-3 was apparent; in vitro phosphorylation of T-bet by GSK-3 after prephosphorylation with CKI (γ-[32P]ATP) [2]: GSK-3 induced wt levels of phosphorylation in the S498A mutant; in vitro phosphorylation of T-bet by GSK-3 after prephosphorylation with CKI (γ-[32P]ATP) [3]: GSK-3-mediated phosphorylation was markedly decreased in the S508A mutant
casein kinase I (recombinant)	CKI, but not active ERK, phosphorylated T-bet protein in vitro	CKI-mediated phosphorylation of the S508A mutant, but not the S498A control mutant, was dramatically reduced compared to wt	CKI-mediated phosphorylation of the S508A mutant, but not the S498A control mutant, was dramatically reduced compared to wt	–
B1	–	–	–	IL-2 promoter binding of RelA by ChIP with real-time PCR, T-bet-/- versus wt Th1 cells [4]: 4.5 fold
